The results in this text go back to publication PMC9242856, “Structural basis of sodium-dependent bile salt uptake into the liver” (Nature, 2022).

Assay [1] addresses NTCPEM expressed on HEK 293F cells (human) (UniProt Q14973).
In assay [2] the target is T1, wild-type human Na+-taurocholate co-transporting polypeptide (NTCP) expressed on HEK 293F cells (human, UniProt Q14973).
T1 construct: Na+-taurocholate co-transporting polypeptide (NTCP, SLC10A1), human, wild type; also called wild-type NTCP; SLC10A1; source: HEK 293F, transient transfection, on cells
The experiment in a line: fluorescent ligand labelling of cells (plate reader); HEK 293F cells expressing NTCP constructs in PBS; labelled with 10 nM (wild-type NTCP) or 50 nM (NTCPEM) purified myr-preS1_48-GFP for 30 min; where tested, pre-incubation with 10 uM nanobody for 1.5 h; GFP fluorescence, excitation 470 nm, emission 508 nm. The note with it: one partner purified.

NTCPEM expressed on HEK 293F cells (human), sequence (Q14973 other isoform, or with tags, fused parts or gaps, change not shown): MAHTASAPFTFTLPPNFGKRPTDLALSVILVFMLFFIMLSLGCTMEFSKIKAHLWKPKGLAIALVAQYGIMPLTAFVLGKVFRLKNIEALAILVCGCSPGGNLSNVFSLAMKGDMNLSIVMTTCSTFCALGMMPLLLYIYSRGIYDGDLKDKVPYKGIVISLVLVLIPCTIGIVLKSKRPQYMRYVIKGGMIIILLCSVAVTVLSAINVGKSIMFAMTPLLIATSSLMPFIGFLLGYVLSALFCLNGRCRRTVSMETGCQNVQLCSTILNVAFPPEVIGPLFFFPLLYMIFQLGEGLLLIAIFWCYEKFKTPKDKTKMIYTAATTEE
T1 sequence (Q14973 whole entry): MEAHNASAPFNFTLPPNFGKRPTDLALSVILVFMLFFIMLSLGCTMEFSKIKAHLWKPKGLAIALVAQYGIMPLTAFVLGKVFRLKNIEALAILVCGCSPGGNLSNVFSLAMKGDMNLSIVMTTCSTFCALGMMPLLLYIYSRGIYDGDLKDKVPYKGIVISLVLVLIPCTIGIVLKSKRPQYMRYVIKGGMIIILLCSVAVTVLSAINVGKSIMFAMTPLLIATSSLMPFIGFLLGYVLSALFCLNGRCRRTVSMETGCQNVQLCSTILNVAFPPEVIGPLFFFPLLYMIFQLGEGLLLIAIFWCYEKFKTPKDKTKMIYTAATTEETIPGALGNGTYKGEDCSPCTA

B1: Nanobody 87 (VHH)
VHH: QVQLVESGGGLVQAGGSLRLSCAVSGRTTANYNMGWFRQAPGKEREFVAGIKWSSGSTYVADSAKGRFTISRDNAKNSVYLQMDSLKPEDTALYYCAANYYGVSWFLISPSSYDYWGQGTQVTVSS
notes: llama (Lama glama) nanobody raised against NTCPCO; the nanobody chain of PDB 7PQG; Tags are those of the phage display vector pMESy4 as told for the library; also called Nb87; source: E. coli periplasm, purified (Ni-NTA, SEC)
In assay [1], B1 displayed an IC50 of inhibition of Na+-induced uptake of the fluorescent substrate tauro-nor-THCA-24-DBD by cells expressing NTCPEM of 180 nM. In addition, in assay [2], the binding result is “binds”.

B2: Nanobody 91 (VHH)
VHH: QVQLVESGGGLVEAGGSLRLSCAASTNLRSYAMAWFRQAPGKEREFVSFINWNYGNTRYADSVKGRFTISRDNAKITVYLQMNSLKPEDTAVYYCAAATIGRLAGIDSTTLYDYWGQGTQVTVSS
In the case of B2, the IC50 of inhibition of Na+-induced uptake of the fluorescent substrate tauro-nor-THCA-24-DBD by cells expressing NTCPEM in assay [1] was determined as 34 nM.
